Reference: US20250382354A1 (INSTITUTE FOR RESEARCH IN BIOMEDICINE IRB, published 2025)

B1: rbd.110 (antibody, V domains shown)
VH: EVQLVESGGGVVQPGRSLRLSCVASGFTFSRYGMHWVRQAPGKGLEWVATILYDGSDQYYAESVKGRFTISRDNSKNTLYLQMNSLREADTAVYYCAKTSYGYAYNFRLYFDYWGQGTLVTVSS
VL: SYELTQPPSVSVAPGKTATITCGGNNIGSAGVHWYQQRPGQAPVLVVYDDSDRPSGIPERFSGSTSGNTATLTISRVEAGDEADYYCQVWDSNSAPVIFGGGTKLTVL
B2: rbd.106 (antibody, V domains shown)
VH: EVQLVQSGAEVKKPGESLKISCKGSGYSFYNHWIAWVRQMPGKGLEWMGIIYPYDSDTRYSPSFQGQVTISADKSITTAYLQWSSLKASDTAIYYCARRSDYGEFGGHSDYWGQGTLVTVSS
VL: not shown
B3: rbd.143 (antibody, V domains shown)
VH: EVQLVESGGGLVQPGGSLRLSCSASGFTFRRYAMHWVRQAPGKGLQHVSAISSDGDNTHYADSVKGRFTISRDNFKNTLHLQMSSLRPEDTAVYYCVKDPFSNFHYFDCWGQGILVTVSS
VL: not shown
B4: sd1.108 (antibody, V domains shown)
VH: QVQLVQSGAEVKKPGASVKVSCKASGYTFTSYYIHWVRQTPGQGLEWMGIINPRGGSTSYPQKFQGRVSMTRDTSTSTVFMELSSLRSDDTAVYYCAREHREDTAMDNQPSDSWGQGTLVTVSS
VL: DIVMTQSPDSLSVSLGERATINCKSSRSVFYSSNNKSYLAWYQQKPGQPPKLLIYWASTRESGVRDRFSGSGSGTDFTLTISSLQAEDVAVYYCQQYYNTPYTFGQGTKLEIK
B5: rbd.049 (antibody, V domains shown)
VH: QLQLQESGPGLVKPSETLSLSCTVSGGSISSKSDYWGWIRQSPGKGLEWIGSIYYTGTTYYNPSLKSRVSISLDKSKNQFSLKLNSLTAADTALYYCARDPSIAVATTVYFDAWGQGTLVTVSS
VL: EIVLTQSPGTLSLSPGERATLSCRASESVKSNYLAWYQQKLGQPPRLLIFGASTRATGIPDRFSGSGSGTDFTLTISRLEPEDFAVYYCQQYHTSPPRYTFGQGTKLEIK
B6: hr2.090 (antibody, V domains shown)
VH: EVQLLESGGGLVQPGGSLRLSCAASGVTFSRYAMSWVRQAPGKGLEWVSTISGGGGGTYYADSVKGRFTISRDNSKNTLYLQMNSLRAEDTAVYYCATLLTVPGPYYFEYWGQGTLVTVSS
VL: EIVLTQSPGTLSLSPGERATLSCRASQSVSSSYLAWYQQKPGQAPRLLIYGASSRATGIPDRFSGSGSGTDFTLTISRLESEDFAVYYCQHSRFTFGPGTRVDIK
B7: rbd.113 (antibody, V domains shown)
VH: EVQLVQSGAAVKKPGESLKISCKGSGYSFTNYWIGWVRQMPGKGLELMGIIYVGDSDTRYSPSFQGQVTISADKSITTAYLQWSSLKASDSAIYYCARQRCGGDCPFDLWGRGTLVTVSS
VL: DIQMTQSPSTLSASVGDRVTITCRASQSINRWLAWYQQKPGKAPELLIYDASDLESGVPSRFSGSGSGTEFTLTISSLQPDDFATYYCQQYNSYWTFGQGTKVEIK
B8: rbd.142 (antibody, V domains shown)
VH: EVQLVESGGGVVQPGRSLRLSCVASGLTFSRYGMHWVRQAPGKGLEWVAVTTYDGSNKDYADSVKGRFTISRDNSKNTLYLQMNSLRAEDTAVYYCAKVGGGEYCSGGSCYGSYGMDVWGQGTTVTVSS
VL: not shown
B9: rbd.117 (antibody, V domains shown)
VH: EVQLVESGGGLVQPGGSLRLSCAASGFTFSRYAMSWVRQAPGKGLEWVSGLSGSGDSTYYADSVKGRFTISRDNSKKTLNLQMNSLRPEDTAVYYCAKGSRFGIDYFDCWGQGTLVTVSS
VL: DIQMTQSPSTLSASVGDRVTITCRASQSISSWLAWYQLKPGKAPKLLIYDASSLESGVPSRFSGSGSGTEFTLTISSLQPDDFATYYCQQYNTYPFSFGPGTKVDIK
B10: rbd.123 (antibody, V domains shown)
VH: QVQLVQSGAEVKKPGSSVKVSCKASGGAFRMYAISWVRQAPGQGLEWMGGIIPISGTATYTQNFQGRVTITVDRSTSTAYMELSSLRSDDTALYYCARGPRTGYDYFDFWGQGTLVTVSS
VL: DIQMTQSPSTLSASVGDRVTITCRASQSISSWLAWYQQKPGKAPNLLIYDASSLESGVPSRFSGSGSGTEFTLTISSLQPDDFATYYCQQYKSYPYTFGQGTKLEIK
B11: sd1.040 (antibody, V domains shown)
VH: QVQLVQSGAEVKKPGASVKVSCKASGYTFTSFYIHWVRQAPGQGLEWMGIIDPSGGSTSYPQKFQGRVTMTRDTSTSTVYMDLSSLRSEDTAVYYCTRDGSAGDNSWFDPWGQGTLVTVSS
VL: not shown
B12: sd1.034 (antibody, V domains shown)
VH: EVQLVESGGGVVQPGRSLRLSCAASGFSFSNYGMHWVRQAPGKGLEWVAVISYDGSHKSFADSVKGRFTISRDNSKNTLNLQMNSLRREDTAVYYCATDQGGSLGYWGQGTLVTVSS
VL: QSALTQPASVSGSPGQSITISCTGTSGDVGGYNYVSWYQHHPGKAPKLMIYDVSNRPSGVSNRFSGSKSGNTASLTISGLQAEDEADYYCSSYTSTSTSWVFGGGTKLTVL
B13: rbd.112 (antibody, V domains shown)
VH: EVQLVQSGAEVKKSGESLKISCKSSGYSFTTYWIAWVRQMPGKGLEWMGIIYPGHSDARYSPSFQGHVTISADKSISTAYLQWRSLKASDTAIYYCARLSYYDVSNFYYYDSYWFDSWGLGTLVTVSS
VL: QSVLTQPPSVSGAPGQRVTISCTGSSSNLGAGYDVHWYQQLPGTAPKLLIYANSNRPSGVPDRFSGSKSGTSASLAMTGLQAEDEADYYCQSYDSSLGGYVFGFGTKVTVL
B14: sd1.127 (antibody, V domains shown)
VH: EVQLVESGGALVKPGGSLTLSCVASGFTFSHAWMTWVRQAPGKGLEWVGRIKTKTEGGTIDYAAPLRGRFTISRDDSKNTLYLRMNSLKIEDTAKYYCTTHSSPDYWGQGTLVTVSS
VL: DIQMTQSPSSLSASIGDRVTITCRASQGIGNSLLWYQQKRGKVPKLLIYAASTLQSGVPSRFSGSGSGTDFTLTISSLQPEDVATYYCQRYNSAPLTFGGGTKVEIK
B15: hr2.019 (antibody, V domains shown)
VH: EVQLVESGGGLVKPGGSLRLSCAASGSSVIDVWMNWVRQAPGKGLEWVGRIKTKASGAATDYGAPVKGRFTISRDDSKNLSYLQMNSLRAEDTGIYYCTTSPLPNFDYWGRGTLVTVSS
VL: DIVMTQSPDFLAVSLGETATINCRSSQSVFYFANNKNYLAWYQQKPGQPPKLLIYWASKRESGVPDRFSGSGSGTDFTLTISSLQAEDVATYYCQQYSSPAITFGPGTKVDIK
B16: fp.007 (antibody, V domains shown)
VH: EVQLVESGGGLVKPGGSLRLSCAGTGFIFSDAWMTWVRQAPGKGLEWVGRIKSKADGGTTDYAAPVKGRFTISRDDSKNTLYLEINSLKTEDTAVYYCTTGRSRYCIGAVCYYFDHWGQGTLVTVSS
VL: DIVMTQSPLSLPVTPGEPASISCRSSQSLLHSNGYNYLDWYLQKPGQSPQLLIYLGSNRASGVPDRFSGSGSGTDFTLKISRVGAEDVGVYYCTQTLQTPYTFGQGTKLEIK
B17: rbd.141 (antibody, V domains shown)
VH: EVQLVESGGGVVQPGRSLRLSCAASGFTFSSYGMHWVRQAPGKGLEWVAVISYDGKIKYYADSVEGRFTISRDNSKNALYLQMNSLRAEDTAVYYCAKYGIVTSFGVVPPYDMDVWGQGTTVTVSS
VL: DVVMTQSPLSLPVTLGQPASISCRSSQSLVYSDGNTFLNWFQQRPGQSPRRLIYKVSDRDSGVPDRFSGSGSGTDFTLKISRVEAEDVGVYYCMQGTNWPPTFGQGTKVEIK

What was measured:
[1] = target: SARS-CoV-2 S of the Ancestral pseudovirus (pSARS-COV2-Strunc) (SARS-CoV-2 (ancestral), UniProt P0DTC2 14-1254); assay: cell-based or functional assay
[2] = target: C-terminally truncated SARS-CoV-2 S protein (pSARS-CoV2-Strunc), ancestral (SARS-CoV-2, UniProt P0DTC2 14-1273); assay: cell-based or functional assay

Row | Binder | Ancestral Pseudovirus IC50 [1] [µg/mL] | Ancestral Pseudovirus IC50 [2] [µg/mL] | Ancestral Pseudovirus IC50 (on cells with [not given]) [2] [µg/mL]
1 | B1 | 4.25 | – | –
2 | B2 | 0.0674 | – | –
3 | B3 | 0.28 | – | –
4 | B4 | 0.446 | – | –
5 | B5 | 3.71 | – | –
6 | B6 | – | 1.02 | –
7 | B7 | 0.373 | – | –
8 | B8 | 5.09 | – | –
9 | B9 | 0.203 | – | –
10 | B10 | 1.21 | – | –
11 | B11 | 0.245 | – | –
12 | B12 | 0.387 | – | –
13 | B13 | 0.0867 | – | –
14 | B14 | 6.68 | – | –
15 | B15 | – | 1.22 | –
16 | B16 | – | 11.1 | 3.98
17 | B17 | 0.164 | – | –
